{"source": "patent US20140212406A1", "about": "(INSTITUT NATIONAL DE LA SANTE ET DE LA RECHERCHE MEDICALE …, published 2014)", "data": [{"target": "N-methyl-D-aspartate receptor on primary cultured mouse cortical neurons (mouse, UniProt P35438 19-938)", "assay": "cell-based or functional assay", "units": {"neuronal cell death (LDH release, cortical neurons, 0.3 uM)": "%"}, "values": [{"binder": "human tPA containing the triple mutation P125R W253R R275S, 6xHis tag and linker at the N-terminus (enzyme) HHHHHHGSSYQVICRDEKTQMIYQQHQSWLRPVLRSNRVEYCWCNSGRAQCHSVPVKSCSEPRCFNGGTCQQALYFSDFVCQCPEGFAGKCCEIDTRATCYEDQGISYRGTWSTAESGAECTNWNSSALAQKRYSGRRPDAIRLGLGNHNYCRNPDRDSKPWCYVFKAGKYSSEFCSTPACSEGNSDCYFGNGSAYRGTHSLTESGASCLPWNSMILIGKVYTAQNPSAQALGLGKHNYCRNPDGDAKPWCHVLKNRRLTREYCDVPSCSTCGLRQYSQPQFSIKGGLFADIASHPWQAAIFAKHRRSPGERFLCGGILISSCWILSAAHCFQERFPPHHLTVILGRTYRVVPGEEEQKFEVEKYIVHKEFDDDTYDNDIALLQLKSDSSRCAQESSVVRTVCLPPADLQLPDWTECELSGYGKHEALSPFYSERLKEAHVRLYPSSRCTSQHLLNRTVTDNMLCAGDTRSGGPQANLHDACQGDSGGPLVCLNDGRMTLVGIISWGLGCGQKDVPGVYTKVTNYLDWIRDNMRP", "neuronal cell death (LDH release, cortical neurons, 0.3 uM)": 51}, {"binder": "human tPA containing the double mutation W253R R275S, 6xHis tag and linker at the N-terminus (enzyme) HHHHHHGSSYQVICRDEKTQMIYQQHQSWLRPVLRSNRVEYCWCNSGRAQCHSVPVKSCSEPRCFNGGTCQQALYFSDFVCQCPEGFAGKCCEIDTRATCYEDQGISYRGTWSTAESGAECTNWNSSALAQKPYSGRRPDAIRLGLGNHNYCRNPDRDSKPWCYVFKAGKYSSEFCSTPACSEGNSDCYFGNGSAYRGTHSLTESGASCLPWNSMILIGKVYTAQNPSAQALGLGKHNYCRNPDGDAKPWCHVLKNRRLTREYCDVPSCSTCGLRQYSQPQFSIKGGLFADIASHPWQAAIFAKHRRSPGERFLCGGILISSCWILSAAHCFQERFPPHHLTVILGRTYRVVPGEEEQKFEVEKYIVHKEFDDDTYDNDIALLQLKSDSSRCAQESSVVRTVCLPPADLQLPDWTECELSGYGKHEALSPFYSERLKEAHVRLYPSSRCTSQHLLNRTVTDNMLCAGDTRSGGPQANLHDACQGDSGGPLVCLNDGRMTLVGIISWGLGCGQKDVPGVYTKVTNYLDWIRDNMRP", "neuronal cell death (LDH release, cortical neurons, 0.3 uM)": 62}, {"binder": "human tPA containing a tryptophan to arginine point mutation at position 253 (W253R), 6xHis tag and linker at the N-terminus (enzyme) HHHHHHGSSYQVICRDEKTQMIYQQHQSWLRPVLRSNRVEYCWCNSGRAQCHSVPVKSCSEPRCFNGGTCQQALYFSDFVCQCPEGFAGKCCEIDTRATCYEDQGISYRGTWSTAESGAECTNWNSSALAQKPYSGRRPDAIRLGLGNHNYCRNPDRDSKPWCYVFKAGKYSSEFCSTPACSEGNSDCYFGNGSAYRGTHSLTESGASCLPWNSMILIGKVYTAQNPSAQALGLGKHNYCRNPDGDAKPWCHVLKNRRLTREYCDVPSCSTCGLRQYSQPQFRIKGGLFADIASHPWQAAIFAKHRRSPGERFLCGGILISSCWILSAAHCFQERFPPHHLTVILGRTYRVVPGEEEQKFEVEKYIVHKEFDDDTYDNDIALLQLKSDSSRCAQESSVVRTVCLPPADLQLPDWTECELSGYGKHEALSPFYSERLKEAHVRLYPSSRCTSQHLLNRTVTDNMLCAGDTRSGGPQANLHDACQGDSGGPLVCLNDGRMTLVGIISWGLGCGQKDVPGVYTKVTNYLDWIRDNMRP", "neuronal cell death (LDH release, cortical neurons, 0.3 uM)": 64}, {"binder": "human single-chain tPA with arginine to serine point mutation at position 275 (R275S), 6xHis tag and linker at the N-terminus (enzyme) HHHHHHGSSYQVICRDEKTQMIYQQHQSWLRPVLRSNRVEYCWCNSGRAQCHSVPVKSCSEPRCFNGGTCQQALYFSDFVCQCPEGFAGKCCEIDTRATCYEDQGISYRGTWSTAESGAECTNWNSSALAQKPYSGRRPDAIRLGLGNHNYCRNPDRDSKPWCYVFKAGKYSSEFCSTPACSEGNSDCYFGNGSAYRGTHSLTESGASCLPWNSMILIGKVYTAQNPSAQALGLGKHNYCRNPDGDAKPWCHVLKNRRLTWEYCDVPSCSTCGLRQYSQPQFSIKGGLFADIASHPWQAAIFAKHRRSPGERFLCGGILISSCWILSAAHCFQERFPPHHLTVILGRTYRVVPGEEEQKFEVEKYIVHKEFDDDTYDNDIALLQLKSDSSRCAQESSVVRTVCLPPADLQLPDWTECELSGYGKHEALSPFYSERLKEAHVRLYPSSRCTSQHLLNRTVTDNMLCAGDTRSGGPQANLHDACQGDSGGPLVCLNDGRMTLVGIISWGLGCGQKDVPGVYTKVTNYLDWIRDNMRP", "neuronal cell death (LDH release, cortical neurons, 0.3 uM)": 62}]}, {"target": "T1, fibrin", "T1 chain 1": "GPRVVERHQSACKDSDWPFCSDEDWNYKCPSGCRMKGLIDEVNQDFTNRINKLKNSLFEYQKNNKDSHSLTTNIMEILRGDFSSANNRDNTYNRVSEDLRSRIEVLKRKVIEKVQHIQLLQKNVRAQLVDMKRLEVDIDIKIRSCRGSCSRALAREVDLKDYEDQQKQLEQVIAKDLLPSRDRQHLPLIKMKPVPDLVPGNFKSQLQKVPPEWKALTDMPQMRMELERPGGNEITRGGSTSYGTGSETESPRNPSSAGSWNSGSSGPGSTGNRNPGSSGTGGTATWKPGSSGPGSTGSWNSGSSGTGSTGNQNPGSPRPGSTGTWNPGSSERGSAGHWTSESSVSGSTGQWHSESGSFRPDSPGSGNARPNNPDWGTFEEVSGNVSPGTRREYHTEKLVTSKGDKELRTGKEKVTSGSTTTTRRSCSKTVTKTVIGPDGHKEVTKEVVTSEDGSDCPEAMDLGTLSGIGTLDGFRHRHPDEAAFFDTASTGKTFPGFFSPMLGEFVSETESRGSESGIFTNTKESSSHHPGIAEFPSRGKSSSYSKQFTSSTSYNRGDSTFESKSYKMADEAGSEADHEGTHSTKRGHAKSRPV", "T1 chain 2": "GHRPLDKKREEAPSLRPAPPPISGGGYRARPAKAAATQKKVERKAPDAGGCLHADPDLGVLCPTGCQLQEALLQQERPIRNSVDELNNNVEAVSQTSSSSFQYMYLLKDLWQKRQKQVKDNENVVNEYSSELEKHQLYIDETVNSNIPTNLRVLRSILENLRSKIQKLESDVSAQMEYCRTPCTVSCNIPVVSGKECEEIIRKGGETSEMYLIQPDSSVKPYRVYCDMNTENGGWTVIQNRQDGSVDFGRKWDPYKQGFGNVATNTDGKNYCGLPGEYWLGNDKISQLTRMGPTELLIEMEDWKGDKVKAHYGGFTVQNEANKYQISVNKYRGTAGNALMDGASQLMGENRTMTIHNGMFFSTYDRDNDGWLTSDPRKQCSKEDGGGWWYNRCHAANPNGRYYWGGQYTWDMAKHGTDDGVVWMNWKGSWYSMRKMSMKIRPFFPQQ", "T1 chain 3": "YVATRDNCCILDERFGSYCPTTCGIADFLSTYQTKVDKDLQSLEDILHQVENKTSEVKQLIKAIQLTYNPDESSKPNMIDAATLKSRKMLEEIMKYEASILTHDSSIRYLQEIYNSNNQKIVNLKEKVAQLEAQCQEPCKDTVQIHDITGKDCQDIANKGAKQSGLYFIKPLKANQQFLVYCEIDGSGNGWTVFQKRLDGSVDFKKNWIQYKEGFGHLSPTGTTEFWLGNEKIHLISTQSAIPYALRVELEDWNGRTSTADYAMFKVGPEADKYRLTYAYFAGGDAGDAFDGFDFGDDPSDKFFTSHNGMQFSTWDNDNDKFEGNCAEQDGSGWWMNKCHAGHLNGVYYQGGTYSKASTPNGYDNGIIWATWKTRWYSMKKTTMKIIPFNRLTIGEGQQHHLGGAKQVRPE", "assay": "binding of tPA variants to a solid-phase fibrin surface on PVC plates (3 independent experiments, 12 doses)", "units": {"Kd": "nM"}, "values": [{"binder": "rat single-chain tPA with arginine to serine point mutation at position 276 (R276S), 6xHis-tagged (enzyme, Present only in its single-chain form; also called sc*-tPA; rat sc*-tPA) HHHHHHSYRATCRDEQTQTTYQQHQSWLRPMLRGNRVEYCRCNSGLAQCHSVPVRSCSEPRCFNGGTCQQALYFSDFVCQCPDGFVGKRCDIDTRATCFEGQGITYRGTWSTAENGAECINWNSSALSQKPYSARRPNAIKLGLGNHNYCRNPDRDVRPWCYVFKAGKYTTEFCSTPACPKGPTEDCYVGKGVTYRGTHSFTTSKASCLPWNSMILIGKTYTAWRANSQALGLGRHNYCRNPDGDAKPWCHVMKDRKLTWEYCDMSPCSTCGLRQYKQPLFSIKGGLFTDITSHPWQAAIFVKNKRSPGERFLCGGVLISSCWVLSAAHCFVERFPPHHLKVVLGRTYRVVPGEEEQTFEIEKYIVHKEFDDDTYDNDIALLQLRSDSSQCAQESSSVGTACLPDPDVQLPDWTECELSGYGKHEASSPFFSDRLKEAHVRLYPSSRCTSQHLFNKTITSNMLCAGDTRTGGNQDVHDACQGDSGGPLVCMIDKRMTLLGIISWGLGCGQKDVPGIYTKVTNYLNWIQDNMKQ", "Kd": 1.2}, {"binder": "rat tPA with tryptophan to arginine point mutation at position 254 (W254R), 6xHis-tagged (enzyme, also called K2*-tPA; tPA W254R) HHHHHHSYRATCRDEQTQTTYQQHQSWLRPMLRGNRVEYCRCNSGLAQCHSVPVRSCSEPRCFNGGTCQQALYFSDFVCQCPDGFVGKRCDIDTRATCFEGQGITYRGTWSTAENGAECINWNSSALSQKPYSARRPNAIKLGLGNHNYCRNPDRDVRPWCYVFKAGKYTTEFCSTPACPKGPTEDCYVGKGVTYRGTHSFTTSKASCLPWNSMILIGKTYTAWRANSQALGLGRHNYCRNPDGDAKPWCHVMKDRKLTREYCDMSPCSTCGLRQYKQPLFRIKGGLFTDITSHPWQAAIFVKNKRSPGERFLCGGVLISSCWVLSAAHCFVERFPPHHLKVVLGRTYRVVPGEEEQTFEIEKYIVHKEFDDDTYDNDIALLQLRSDSSQCAQESSSVGTACLPDPDVQLPDWTECELSGYGKHEASSPFFSDRLKEAHVRLYPSSRCTSQHLFNKTITSNMLCAGDTRTGGNQDVHDACQGDSGGPLVCMIDKRMTLLGIISWGLGCGQKDVPGIYTKVTNYLNWIQDNMKQ", "Kd": 0.5}]}]}
